Data on 15 molecules can be found in US20180282403A1, “AGENTS FOR REDUCING THE ACTIVITY OF GDF15” (GENAGON THERAPEUTICS AB, priority 2015, published 2018).

No end group written: not given here.

In experiment [1] the target is T1, GDF15 (Homo sapiens, UniProt Q99988).
T1 construct: purchased Abcam
T1 sequence (Q99988 197-308 limits assumed): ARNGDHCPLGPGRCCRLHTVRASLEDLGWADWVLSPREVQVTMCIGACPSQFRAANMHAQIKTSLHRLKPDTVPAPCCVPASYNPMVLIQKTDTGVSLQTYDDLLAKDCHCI
The experiment can be described thus: Pull down of GDF15 by Fc fusion proteins with stringent washes. It is filed as binding. Conditions: 20 μg Fc fusion protein, 0.5 μg GDF15, protein-G bead, FIG. 27. On the procedure: 20 μg Fc fusion protein constructs were incubated with 0.5 μg GDF15 and protein-G bead with mixing for 6 hrs in +4 C in PBST+1% BSAs. Wash 6 times: 3 times PBST, change tubes, 2 washes PBST+220 mM NaCl. Last wash PBS. The beads were collected using a table-top centrifuge set at 500 g for 5 minutes between washes. Detection The material was loaded on a 4-12% gradient gel, run at 100 volt, transferred to PVDF membrane using a Turbo Tank blot system, blocked by PBS with 3% BSA 1 hr RT, and incubated with RD systems a monoclonal anti-GDF15 antibody overnight. A secondary antibody: mouse HRP 1:2000 was used for detection. The size of band was estimated by comparing with a seeblue2 protein ladder marker run in an adjacent lane.
The fragments from the receptors were selected based on previous results including array data indicating direct interaction with GDF15. In the array, the interaction is between a peptide monomer and the ligand.

The target in experiment [2] is T1, GDF15. The experiment is described as follows: ELISA of GDF15 binding to immobilised biotinylated CLPTM1 derived peptides. Conditions: for binding of GDF15 to immobilised polypeptide: cut-off approximately greater than or equal to 0.1 OD. On the procedure:
(§1) Biotinylated synthetic peptide fragments from CLPTM1 (JPT peptides, Germany) were immobilized in a streptavidin 96 well plate (#15500 Pierce) at 1 μM in PBS over night at +4° C. Plate was washed 4 times in 300 μl PBS with 0.05% Tween-20 (wash buffer). The plate was blocked with PBS 1% BSA and 0.05% Tween-20 (blocking buffer) for 1.5 hours at room temperature then washed 4 times in wash buffer. GDF15 ligand (Abcam) was added in blocking buffer at 100 ng/ml at incubated at room temperature for 2 hours. The plate was then washed 8 times 300 μl in wash buffer with 2× NaCl. A GDF15 antibody as added at 1 ug/ml (RnD systems goat polyclonal) and incubated in block buffer for 1 hour at room temperature followed by washing with 4×300 μl wash buffer. HAF017 anti-goat-HRP antibody was added and incubated for 1 hour in blocking buffer followed by a wash. TMB substrate was added and stopped after 15 minutes with H2SO4. OD 450-620 was measured in an ELISA reader.
Polypeptides having sequences set forth in SEQ ID NOs:250-273 were assessed for binding to GDF15 (corresponding to the polypeptides indicated from left to right in FIG. 31). These proteins were synthesised with a C-terminal glycine residue not present in the corresponding sequences from CLPTM1. A cut-off of approximately greater than or equal to 0.1 OD in the ELISA readout was identified as indicating binding of the GDF15 to an immobilised polypeptide (i.e. including the 0.098 OD value for GDF15 binding to the polypeptide having the sequence set forth in SEQ ID NO:258).

Experiment [3] has as its target T2, QRFPR (Homo sapiens, UniProt Q96P65).
T2 construct: endogenous in cells
T2 sequence (Q96P65 1-431): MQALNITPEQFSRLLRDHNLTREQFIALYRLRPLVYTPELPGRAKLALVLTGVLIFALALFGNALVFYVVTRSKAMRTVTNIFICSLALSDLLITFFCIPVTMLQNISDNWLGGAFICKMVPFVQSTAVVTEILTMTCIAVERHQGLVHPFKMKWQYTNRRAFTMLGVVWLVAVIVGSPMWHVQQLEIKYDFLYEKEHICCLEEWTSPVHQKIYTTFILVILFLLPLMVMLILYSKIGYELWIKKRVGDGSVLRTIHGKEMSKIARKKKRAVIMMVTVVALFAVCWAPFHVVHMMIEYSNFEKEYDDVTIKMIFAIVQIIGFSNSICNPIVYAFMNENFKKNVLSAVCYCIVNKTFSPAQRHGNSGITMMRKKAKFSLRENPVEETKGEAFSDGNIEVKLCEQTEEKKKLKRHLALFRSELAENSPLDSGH
The experiment is described as follows: ACTRIIB assay: in situ PLA detection of ACTRIIB at the cell surface after QRFPR agonist P518. It counts as cell-based. An excerpt: A-C) In situ detection of QRFPR at the cell surface. A) Negative control cells with no added GDF15. B) Cells after exposure to GDF15. C) Cells after exposure to GDF15+ synthetic peptide GEKEYDDVTIK derived from extracellular domain 4 of QRFPR. […] D-F) In situ PLA detection of ACTRIIB at the cell surface. D) Control cells with no added P518. E) Cells after exposure to P518. F) Cells after exposure to P518+ synthetic peptide GEKEYDDVTIK derived from extracellular domain 4 of QRFPR in 125 molar excess. The ability of P518 to increase the level of ACTRIIB at the cell surface was not affected by the peptide.
The effect of the QRFPR agonist p518 was measured. In short, p518/QRFP-26 was purchased from Phoenix Peptides, CA and processed according to the manufacturer's instructions. Cells were serum-starved prior to P518 stimulation overnight.
P518 was mixed with either PBS or QRFPR receptor fragment dissolved in PBS prior to stimulation of cells.

The target of experiment [4] is T3, Growth and differentiation factor 15 (GDF15) (UniProt Q99988 197-308, limits assumed).
T3 construct: Purchased GDF15 added to cells, pull-downs, peptide arrays and ELISA; also called MIC1
T3 sequence (looked up): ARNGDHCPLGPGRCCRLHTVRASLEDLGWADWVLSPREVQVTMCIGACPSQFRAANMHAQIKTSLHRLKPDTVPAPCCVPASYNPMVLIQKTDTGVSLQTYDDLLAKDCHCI
The experiment can be described thus: ELISA, biotinylated peptide in streptavidin wells, GDF15 at 100 ng/ml. As for the experimental part: as §1, with “H₂SO₄.” for “H2SO4.”
Polypeptides having sequences set forth in SEQ ID NOs:250-273 were assessed for binding to GDF15 (corresponding to the polypeptides indicated from left to right in FIG. 31). These proteins were synthesised with a C-terminal glycine residue not present in the corresponding sequences from CLPTM1.

With “Fc mouse IgG1-GGGGSGGGGSGGGGSQRLEIKYDFLYEKEH ({Fc mouse IgG1}-GGGGSGGGGSGGGGSQRLEIKYDFLYEKEH) [AP5, Fc fusion protein with QRFPR peptide]”, the “pull down of GDF15 by Fc fusion protein” value in experiment [1] is recorded as “capable of pulling down GDF15”.

Take “GDYYPIIYFNDYWNLQKDYYG (listed as Homo sapiens) [SEQ ID NO:270]”: the “affinity for GDF15 (MIC1) within a panel of 24 CLPTM1 derived peptides” value in experiment [2] was “highest affinity”. For the same molecule, in experiment [2] (FIG. 31), the “binding of GDF15 to immobilised polypeptide” value (“binding of GDF15” below) is “showed binding to GDF15”.

Take “GSIYIHVYFTKSGFHPDPRQG (listed as Homo sapiens) [SEQ ID NO:258]”: in experiment [2] (FIG. 31), the “binding of GDF15” value was “showed binding to GDF15”. For the same molecule, in experiment [2] (peptide immobilised at 1 μM, GDF15 100 ng/ml, OD 450-620, FIG. 31), the “OD value in the ELISA readout for GDF15 binding” value was 0.098 OD.

With “ITINIVDDHTPWVKGSVPPPG (listed as Homo sapiens) [SEQ ID NO:262]”, the “binding of GDF15” value in experiment [2] (FIG. 31) is “showed binding to GDF15”.

For “KALYRRLATVHMSRMINKYKG (listed as Homo sapiens) [SEQ ID NO:259]”, in experiment [2] (FIG. 31), the “binding of GDF15” value was “showed binding to GDF15”.

On to “LDQYVKFDAVSGDYYPIIYFG (listed as Homo sapiens) [SEQ ID NO:263]”, for which the “binding of GDF15” value in experiment [2] (FIG. 31) is reported as “showed binding to GDF15”.

For “QRFP(43-mer): known agonist for QRFPR (QDEGSEATGFLPAAGEKTSGPLGNLAEELNGYSRKKGGFSFRF; ends and bridges not checked; UniProt P83859 91-133, looked up)”, the “regulation of the levels of ACTRIIB by QRFPR agonists” value in experiment [3] is “act in opposite manner to each other”.

Turning to “YPINESLASLPLRVSFCPLSG (listed as Homo sapiens) [SEQ ID NO:269]”, the “binding of GDF15” value in experiment [2] (FIG. 31) was “showed binding to GDF15”.

As to “p518: QRFPR agonist purchased from Phoenix Peptides (TSGPLGNLAEELNGYSRKKGGFSFRF)”, the “regulation of the levels of ACTRIIB by QRFPR agonists” value in experiment [3] is reported as “act in opposite manner to each other”. Further, the “levels of ACTRIIB” value in experiment [3] (p518 alone, serum-starved cells, overnight stimulation) was “sufficient to increase levels of ACTRIIB”.

B1: AAAQEADGARSAVVAAGGGSSGQVTSNGSIGRDPPAETQPQNPPAQPAPNAGGGGSGGGGSGGGGS-Fc mouse IgG1 (protein)
chain: AAAQEADGARSAVVAAGGGSSGQVTSNGSIGRDPPAETQPQNPPAQPAPNAGGGGSGGGGSGGGGS-{Fc mouse IgG1}
notes: control protein, Fc fusion
As for B1, the “pull down of GDF15 by Fc fusion protein” value in experiment [1] is “did not interact with GDF15”.

B2: CLPTM1 peptide KALYRRLATVHMSRMINKYKG (SEQ ID NO: 259) (peptide)
peptide: KALYRRLATVHMSRMINKYKG
modifications: also: biotinylated, position not given here
notes: Immobilised in streptavidin wells; the entry carries one added C-terminal G; also called (182-201)
For the molecule B2, the binding result in experiment [4] was “binds”.

B3: CLPTM1 peptide GDYYPIIYFNDYWNLQKDYYG (SEQ ID NO: 270) (peptide)
peptide: GDYYPIIYFNDYWNLQKDYYG
modifications: also: biotinylated, position not given here
notes: Immobilised in streptavidin wells; the entry carries one added C-terminal G; also called (273-292)
Consider B3, for which the binding result in experiment [4] is given as “binds”.

B4: CLPTM1 peptide YPINESLASLPLRVSFCPLSG (SEQ ID NO: 269) (peptide)
peptide: YPINESLASLPLRVSFCPLSG
modifications: also: biotinylated, position not given here
notes: Immobilised in streptavidin wells; the entry carries one added C-terminal G; also called (292-311)
With B4, the binding result in experiment [4] was “binds”.

B5: CLPTM1 peptide LDQYVKFDAVSGDYYPIIYFG (SEQ ID NO: 263) (peptide)
peptide: LDQYVKFDAVSGDYYPIIYFG
modifications: also: biotinylated, position not given here
notes: Immobilised in streptavidin wells; the entry carries one added C-terminal G; also called (262-280)
Take B5: the binding result in experiment [4] is on record as “binds”.

B6: CLPTM1 peptide ITINIVDDHTPWVKGSVPPPG (SEQ ID NO: 262) (peptide)
peptide: ITINIVDDHTPWVKGSVPPPG
modifications: also: biotinylated, position not given here
notes: Immobilised in streptavidin wells; the entry carries one added C-terminal G; also called (242-260)
In the case of B6, the binding result in experiment [4] is reported as “binds”.
